Measured values as given in paper PMC3267858 (Nature, 2012).

B1: C-linker/CNBHD of zebrafish ELK channel (amino acids Q543-L750) (domain or fragment, Danio rerio (zebrafish), UniProt A8WHX9 543-750, looked up)
chain: QRMYSRRSLYHTRTKDLKDFIRVHRLPKALAQRMLECFQTTWSVNNGIDVSELLKDFPDELRADIAMHLNKELLQLPLFESASRGCLRSLSLIIKTSFCAPGEFLIRQGDALQAIYFVCSGSMEVLKDNTVLAILGKGDLIGSDSLTKEQVIKTNANVKALTYCDLQYISLKGLREVLRLYPEYAQKFVSEIQHDLTYNLREGSGADL
B2: GFP-tagged C-linker/CNBHD of zELK channels (amino acids Q543-L750) (domain or fragment, Danio rerio (zebrafish), UniProt A8WHX9 543-750, looked up)
chain: QRMYSRRSLYHTRTKDLKDFIRVHRLPKALAQRMLECFQTTWSVNNGIDVSELLKDFPDELRADIAMHLNKELLQLPLFESASRGCLRSLSLIIKTSFCAPGEFLIRQGDALQAIYFVCSGSMEVLKDNTVLAILGKGDLIGSDSLTKEQVIKTNANVKALTYCDLQYISLKGLREVLRLYPEYAQKFVSEIQHDLTYNLREGSGADL

How the values were obtained:
crystal structure = molecular target: the molecule itself; test: crystal structure
SEC = molecular target: the molecule itself; test: SEC

Protein	stoichiometry N (crystal structure)	stoichiometry N (SEC)
B1	2	–
B2	–	2
